molecular target: acetylcholine receptor; assay: SPR, AchR immobilised on chip, peptide at 10 uM

Binder | Binding affinity
KWVQRK [6mer-2-269] | 123 RU
KSRLRR [6mer-2-270] | 148 RU
RLFQKK [6mer-2-271] | 131 RU
KWRSRK [6mer-2-272] | 154 RU
KLRQRR [6mer-2-273] | 131 RU
KLRTKR [6mer-2-274] | 148 RU
KLITRR [6mer-2-275] | 135 RU
RLVCRK [6mer-2-276] | 153 RU
RLRYRK [6mer-2-277] | 128 RU
RQIQKK [6mer-2-278] | 135 RU
KSLQRK [6mer-2-279] | 148 RU
KSIYRR [6mer-2-280] | 153 RU
KGQRKK [6mer-2-281] | 149 RU
RQQYRK [6mer-2-282] | 151 RU
KLISKR [6mer-2-283] | 148 RU
KLRSKR [6mer-2-284] | 151 RU
RRIQRR [6mer-2-285] | 142 RU
KRRYKK [6mer-2-286] | 139 RU
RLYLKR [6mer-2-287] | 124 RU
KSRLRK [6mer-2-288] | 122 RU
RLLQKK [6mer-2-289] | 146 RU

Binder | Binding affinity
RQLYRK [6mer-2-290] | 135 RU
RRYRKR [6mer-2-291] | 154 RU
RQLCKR [6mer-2-292] | 121 RU
KQQSKR [6mer-2-293] | 153 RU
KLYYRR [6mer-2-294] | 135 RU
KVRYKK [6mer-2-295] | 145 RU
KWYRRK [6mer-2-296] | 135 RU
RSLSRR [6mer-2-297] | 139 RU
KWICKK [6mer-2-298] | 149 RU
RWYYRK [6mer-2-299] | 141 RU
RWRLKK [6mer-2-300] | 153 RU
RQVRKR [6mer-2-301] | 122 RU
KQICKK [6mer-2-302] | 148 RU
KVFTKR [6mer-2-303] | 126 RU
KWFYRK [6mer-2-304] | 144 RU
KQFYKK [6mer-2-305] | 154 RU
RQFQKR [6mer-2-306] | 141 RU
RLRSKK [6mer-2-307] | 141 RU
KGISKR [6mer-2-308] | 148 RU
KRRRRR [6mer-2-309] | 151 RU
KLFQRK [6mer-2-310] | 149 RU

Binder | Binding affinity
KVVTRK [6mer-2-311] | 147 RU
KWRTKR [6mer-2-312] | 121 RU
RWRTKR [6mer-2-313] | 154 RU
KQYCKK [6mer-2-314] | 127 RU
RRQRRR [6mer-2-315] | 139 RU
KGIRRR [6mer-2-316] | 139 RU
RGLYKR [6mer-2-317] | 135 RU
RGIQKK [6mer-2-318] | 145 RU
RSRQRK [6mer-2-319] | 137 RU
RQYRRK [6mer-2-320] | 148 RU
KLVSRK [6mer-2-321] | 139 RU
RRYSRR [6mer-2-322] | 148 RU
KVLLRK [6mer-2-323] | 145 RU
KLQSRK [6mer-2-324] | 139 RU
RVFSRK [6mer-2-325] | 142 RU
RGFYKK [6mer-2-326] | 142 RU
KGLRKR [6mer-2-327] | 153 RU
KRYQRK [6mer-2-328] | 131 RU
RVYTKR [6mer-2-329] | 142 RU
KQLRKK [6mer-2-330] | 139 RU

molecular target: acetylcholine receptor; assay: SPR, AchR immobilised on CM5 chip, peptide at 10 uM

Binder | Binding affinity (RU)
RKVRLR [6mer-1-451] | 153 RU
KRLYTR [6mer-1-452] | 141 RU
KKWQQK [6mer-1-453] | 154 RU
RKVLRR [6mer-1-454] | 124 RU
RRVFYK [6mer-1-455] | 126 RU
RRGQYR [6mer-1-456] | 153 RU
RKLLCR [6mer-1-457] | 121 RU
RKGQLK [6mer-1-1458] | 139 RU
RRWVYK [6mer-1-459] | 131 RU
RRGFYR [6mer-1-460] | 148 RU
RRGYTR [6mer-1-461] | 142 RU
RKQILK [6mer-1-462] | 126 RU
KRSFRK [6mer-1-463] | 153 RU
RRQRLK [6mer-1-464] | 131 RU
RKQVYK [6mer-1-465] | 154 RU
KRSICR [6mer-1-466] | 148 RU
KRGYQK [6mer-1-467] | 121 RU
